The results in this text go back to patent publication US20090186036A1 (Biogen, published 2009).

First the molecules themselves.
B2: soluble recombinant human αvβ6 (receptor)
chain 1: FNLDVDSPAEYSGPEGSYFGFAVDFFVPSASSRMFLLVGAPKANTTQPGIVEGGQVLKCDWSSTRRCQPIEFDATGNRDYAKDDPLEFKSHQWFGASVRSKQDKILACAPLYHWRTEMKQEREPVGTCFLQDGTKTVEYAPCRSQDIDADGQGFCQGGFSIDFTKADRVLLGGPGSFYWQGQLISDQVAEIVSKYDPNVYSIKYNNQLATRTAQAIFDDSYLGYSVAVGDFNGDGIDDFVSGVPRAARTLGMVYIYDGKNMSSLYNFTGEQMAAYFGFSVAATDINGDDYADVFIGAPLFMDRGSDGKLQEVGQVSVSLQRASGDFQTTKLNGFEVFARFGSAIAPLGDLDQDGFNDIAIAAPYGGEDKKGIVYIFNGRSTGLNAVPSQILEGQWAARSMPPSFGYSMKGATDIDKNGYPDLIVGAFGVDRAILYRARPVITVNAGLEVYPSILNQDNKTCSLPGTALKVSCFNVRFCLKADGKGVLPRKLNFQVELLLDKLKQKGAIRRALFLYSRSPSHSKNMTISRGGLMQCEELIAYLRDESEFRDKLTPITIFMEYRLDYRTAADTTGLQPILNQFTPANISRQAHILLDCGEDNVCKPKLEVSVDSDQKKIYIGDDNPLTLIVKAQNQGEGAYEAELIVSIPLQADFIGVVRNNEALARLSCAFKTENQTRQVVCDLGNPMKAGTQLLAGLRFSVHQQSEMDTSVKFDLQIQSSNLFDKVSPVVSHKVDLAVLAAVEIRGVSSPDHVFLPIPNWEHKENPETEEDVGPVVQHIYELRNNGPSSFSKAMLHLQWPYKYNNNTLLYILHYDIDGPMNCTSDMEINPLRIKISSLQTTEKNDTVAGQGERDHLITKRDLALSEGDIHTLGCGVAQCLKIVCQVGRLDRGKSAILYVKSLLWTETFMNKENQNHSYSLKSSASFNVIEFPYKNLPIEDITNSTLVTTNVTWGIQPAPMPV
chain 2: GCALGGAETCEDCLLIGPQCAWCAQENFTHPSGVGERCDTPANLLAKGCQLNFIENPVSQVEILKNKPLSVGRQKNSSDIVQIAPQSLILKLRPGGAQTLQVHVRQTEDYPVDLYYLMDLSASMDDDLNTIKELGSRLSKEMSKLTSNFRLGFGSFVEKPVSPFVKTTPEEIANPCSSIPYFCLPTFGFKHILPLTNDAERFNEIVKNQKISANIDTPEGGFDAIMQAAVCKEKIGWRNDSLHLLVFVSDADSHFGMDSKLAGIVIPNDGLCHLDSKNEYSMSTVLEYPTIGQLIDKLVQNNVLLIFAVTQEQVHLYENYAKLIPGATVGLLQKDSGNILQLIISAYEELRSEVELEVLGDTEGLNLSFTAICNNGTLFQHQKKCSHMKVGDTASFSVTVNIPHCERRSRHIIIKPVGLGDALELLVSPECNCDCQKEVEVNSSKCHHGNGSFQCGVCACHPGHMGPRCECGEDMLSTDSCKEAPDHPSCSGRGDCYCGQCICHLSPYGNIYGPYCQCDNFSCVRHKGLLCGGNGDCDCGECVCRSGWTGEYCNCTTSTDSCVSEDGVLCSGRGDCVCGKCVCTNPGASGPTCERCPTCGDPCNSKRSCIECHLSAAGQAREECVDKCKLAGATISEEEDFSKDGSVSCSLQGENECLITFLITTDNEGKTIIHSINEKDCPKPPNIP
notes: extracellular domain; also called hsαvβ6; soluble human truncated αvβ6

Test [1] deals with B2. As to the kind of experiment: ELISA, coated hsαvβ6. The protocol: A 96-well microtiter plate (Corning COSTAR EASY-WASH) was coated with 50 μl/well of 5 μg/ml hsαᵥβ₆ at 4° C. overnight. The plate was washed with wash buffer (0.1% TWEEN-20 in PBS) four times in an automated plate washer. Then 180 μl/well of 3% BSA in TBS was added and incubated for 1 hr at 25° C. to block nonspecific binding. The plate was washed as above, and dilutions of either hybridoma supernatant (for screening assays) or purified antibody (for characterization) in TBS containing 1 mg/ml BSA, 1 mM CaCl₂, and 1 mM MgCl₂ were added (50 μl/well). The plate was incubated for 1 hr at 25° C., washed, and then incubated for 1 hr with 50 μl/well of […] goat anti-mouse IgG+A+M antibody (Cappel). Bound antibody was detected using 3,3′,5,5′-tetramethylbenzidine (TMB). Binding was indicated by the absorbency measured at 450 nm.

Test [2] has as its target T1, αvβ6 on β6-transfected FDC-P1 cells (murine, UniProt P43406 31-1044; Q9Z0T9 22-787).
T1 construct: whole, on cells; αv is that of the murine host cell line; also called β6-FDC-P1 cells; β6-transfected murine cells
As to the kind of experiment: β6-FDC-P1 cells to coated LAP, blocking. On the procedure: A 96-well microtiter plate was coated with 50 μl/well of 0.5 μg/ml recombinant human LAP (R&D Systems) diluted in 50 mM sodium bicarbonate, pH 9.2 at 4° C. overnight. The plate was washed twice with PBS (100 μl/well) and blocked with 1% BSA in PBS (100 μl/well) for 1 hr at 25° C. The plate was washed twice with 100 μl/well of assay buffer (TBS complete plus 1 mM CaCl₂ and 1 mM MgCl₂). Next, to the individual wells of the plate were added 25 μl of a hybridoma supernatant (or a purified antibody) and 25 μl of β₆-FDC-P1 cells (5×10⁶ cells/ml, labeled with Calcein AM as described above). The plate was incubated at 25° C. for 1 hr, and then washed 4-6 times with the assay buffer (100 μl/well). The fluorescence emitted from cells captured on the plate was recorded. Percentage binding was determined by comparing the fluorescence signal prior to the final wash step (i.e., total cells added) to that after washing (i.e., bound cells).

Test [3] concerns the target B2. As to the kind of experiment: biotin-hsαvβ6 to coated LAP, blocking. On the procedure: 96-well microtiter plates (Corning COSTAR EASY-WASH) were coated with 0.3 μg/ml recombinant human LAP (R&D Systems, Cat. # 246-LP) diluted in PBS (50 μl/well) at 4° C. overnight. After the coating solution was removed, the plates were blocked with 180 μl/well of 3% BSA/TBS at 25° C. for 1 hr. […] After washing the LAP-coated plate with wash buffer (0.1% TWEEN-20 in PBS) 4 times in an automated plate washer, 100 μl of the antibody-αᵥβ₆ mixture was transferred to the plate, and incubated for 1 hr at 25° C. The plate was washed as above and incubated with 50 μl/well of a 1:1000 dilution of extravidin-horseradish peroxidase conjugate (Sigma) in TBS (1 mg/ml BSA) for 1 hr at 25° C. Bound protein was detected using the TMB substrate.
The purified antibodies were next evaluated for their ability to inhibit the αᵥβ₆-LAP interaction.

Test [4] deals with αvβ6 on β6-transfected SW480 cells (UniProt P06756 31-1048; P18564 22-788). As to the kind of experiment: cell-based or functional assay.
The target in another test is T2, 6.3G9.
T2 construct: ATCC PTA-3649; also called biotinylated 6.3G9
As to the kind of experiment: KinExA: soluble αvβ6 titrated against 1e-10 M antibody, free antibody caught on integrin-coated beads. On the procedure: A series of dilutions of the soluble integrin (1×10⁻⁸ M to 2.4×10⁻¹² M) were incubated with 1×10⁻¹⁰ M of the antibody for 3 h. These samples were then passed through polymethylmethacrylate beads coated with the integrin using a KinExA instrument (Sapidyne Instruments, Inc., Boise, Id.). In the case of 6.8G6, 11 mM CaCl₂ and […] MgCl₂ were included in the incubation and assay buffers. The amounts of bound and free antibody were determined using a Cy5-labeled anti-mouse secondary antibody. Quadratic curve fitting was performed using the KinExA software to attain a dissociation constant (Kd) for each interaction. […] Thus, both of these antibodies had very high affinities for αᵥβ₆.

T1 sequence (P43406 31-1044, chain 1 of 2): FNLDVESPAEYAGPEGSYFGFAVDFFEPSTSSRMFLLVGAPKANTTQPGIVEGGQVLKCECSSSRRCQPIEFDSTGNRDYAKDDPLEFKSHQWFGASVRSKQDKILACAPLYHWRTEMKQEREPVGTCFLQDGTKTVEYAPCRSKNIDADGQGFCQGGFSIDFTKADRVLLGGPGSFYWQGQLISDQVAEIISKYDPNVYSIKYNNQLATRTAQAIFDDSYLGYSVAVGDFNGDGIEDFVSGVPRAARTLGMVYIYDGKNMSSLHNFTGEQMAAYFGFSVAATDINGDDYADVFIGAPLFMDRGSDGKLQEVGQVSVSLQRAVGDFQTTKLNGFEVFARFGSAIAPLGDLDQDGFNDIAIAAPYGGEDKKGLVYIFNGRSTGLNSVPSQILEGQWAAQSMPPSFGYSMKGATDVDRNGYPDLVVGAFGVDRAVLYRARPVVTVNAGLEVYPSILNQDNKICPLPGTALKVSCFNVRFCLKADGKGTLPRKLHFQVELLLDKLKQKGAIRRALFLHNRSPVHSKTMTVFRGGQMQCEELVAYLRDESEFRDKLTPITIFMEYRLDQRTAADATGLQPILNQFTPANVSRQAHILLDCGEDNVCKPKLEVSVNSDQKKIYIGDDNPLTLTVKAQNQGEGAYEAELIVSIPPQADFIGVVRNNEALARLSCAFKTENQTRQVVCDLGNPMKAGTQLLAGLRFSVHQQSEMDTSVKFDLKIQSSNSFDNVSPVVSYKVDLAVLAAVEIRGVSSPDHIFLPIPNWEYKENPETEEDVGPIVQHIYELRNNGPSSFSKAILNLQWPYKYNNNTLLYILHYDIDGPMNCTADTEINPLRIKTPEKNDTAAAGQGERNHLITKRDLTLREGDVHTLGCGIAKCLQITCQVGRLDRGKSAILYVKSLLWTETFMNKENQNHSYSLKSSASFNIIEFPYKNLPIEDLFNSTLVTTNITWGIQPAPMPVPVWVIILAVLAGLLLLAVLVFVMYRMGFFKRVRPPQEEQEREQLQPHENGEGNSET
T1 sequence (Q9Z0T9 22-787, chain 2 of 2): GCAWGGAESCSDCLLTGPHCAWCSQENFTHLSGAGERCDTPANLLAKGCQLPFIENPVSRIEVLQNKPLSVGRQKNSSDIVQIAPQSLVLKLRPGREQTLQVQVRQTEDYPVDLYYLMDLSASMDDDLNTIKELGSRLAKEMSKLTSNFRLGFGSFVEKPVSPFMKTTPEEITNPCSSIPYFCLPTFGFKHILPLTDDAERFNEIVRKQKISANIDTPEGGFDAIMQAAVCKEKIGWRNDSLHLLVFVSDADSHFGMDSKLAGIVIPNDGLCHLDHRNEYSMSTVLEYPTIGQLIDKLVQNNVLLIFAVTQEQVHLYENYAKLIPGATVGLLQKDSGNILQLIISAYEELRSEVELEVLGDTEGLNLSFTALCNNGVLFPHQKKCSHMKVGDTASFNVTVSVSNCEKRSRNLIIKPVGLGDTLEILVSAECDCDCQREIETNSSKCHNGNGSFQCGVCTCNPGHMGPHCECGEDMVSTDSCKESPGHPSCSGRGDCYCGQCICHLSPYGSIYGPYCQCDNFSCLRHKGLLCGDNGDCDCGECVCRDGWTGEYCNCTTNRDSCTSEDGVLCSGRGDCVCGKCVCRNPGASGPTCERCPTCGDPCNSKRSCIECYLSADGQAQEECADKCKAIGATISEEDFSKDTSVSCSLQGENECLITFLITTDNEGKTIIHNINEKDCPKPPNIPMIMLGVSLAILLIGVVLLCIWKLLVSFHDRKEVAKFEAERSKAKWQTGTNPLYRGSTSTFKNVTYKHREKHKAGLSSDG

B1: 7.1G10 (antibody, V domains shown)
VH: QVQLQQSGPELVKPGASVRISCKASGYTFTSYYIHWVKQRPGQGLEWIGWLYPGKINTRYNEKFKGKATLIADKSSSTAYMQLSSLTSEDSAVYFCARHVLNGNFDYWGQGTTLTVSS
VL: DIQMTQSPSSLSASLGERVSLTCRASQEISGYLSWLQQKPDGSIKRLIYAASTLDSGVPKRFSGSRSGADYSLTISSLESEDFADYYCLQYATYPYTFGGGTKLEIK
notes: ATCC PTA-3898
As to B1, the concentration giving a half-maximal response (EC50) (in general, the concentration giving half of the maximal effect) in test [1] was determined as 0.0042 mg/L. The IC50 – broadly, the point on the concentration scale where inhibition reaches its midpoint – in test [2] is 0.03 mg/L; in test [3] it was 0.113 mg/L. Also, the “PAI-1 luciferase IC50” value in test [4] stood at 0.25 mg/L.
Consider B2, for which, in the test with 6.3G9, the “IC50 (read off the curve)” value is approximately 0.05 nM.

B3: 7.7G5 (antibody, V domains shown)
VH: EVQLQQSGPELVKPGASVKISCKASGYSFTGYFMNWVMQSHGKSLEWIGRIKPYNGDNFYNQKFMGKATLTVDKSSSTVHMELRSLASEDSAVYYCARDRYGTYGMDYWGQGTSVTVSS
VL: QIVLTQSPAIMSASPGEKVTMTCSASSSVSYMHWYQQKSGTSPKRWIYDTSKLASGVPTRFSGSGSGTSYSLTINSMEAEDAATYYCQQWSSHPPTFGAGTKLELK
notes: ATCC PTA-3899
Consider B3, for which the EC50 in test [1] was 0.013 mg/L. In addition, the IC50 was found to be 0.051 mg/L in test [2] and 0.155 mg/L in test [3]. For the same molecule, in test [4], the “PAI-1 luciferase IC50” value amounted to 0.7 mg/L.
